According to patent publication US20250101107A1:

Biological target: human CD8 on human T cells (human) (UniProt P01732)
Test: cell-based or functional assay

Sequence of human CD8 on human T cells (human) (P01732 22-235, chain 1 of 2): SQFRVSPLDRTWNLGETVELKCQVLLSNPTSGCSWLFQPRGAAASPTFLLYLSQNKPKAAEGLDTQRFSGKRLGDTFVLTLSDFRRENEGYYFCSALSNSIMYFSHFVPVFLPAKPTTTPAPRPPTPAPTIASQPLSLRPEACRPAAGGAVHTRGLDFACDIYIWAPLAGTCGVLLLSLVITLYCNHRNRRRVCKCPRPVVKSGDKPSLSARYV
Sequence of human CD8 on human T cells (human) (P10966 22-210, chain 2 of 2, further chain): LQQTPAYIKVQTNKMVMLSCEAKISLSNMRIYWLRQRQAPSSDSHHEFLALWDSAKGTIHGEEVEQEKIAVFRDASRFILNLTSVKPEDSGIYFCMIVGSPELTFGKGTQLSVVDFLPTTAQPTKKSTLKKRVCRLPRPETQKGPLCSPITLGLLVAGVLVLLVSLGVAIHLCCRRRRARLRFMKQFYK

Row | Binder | EC50 for stimulation of pSTAT4 signaling, CD8+ T cells in pre-activated human PBMCs [pM]
1 | 03A01-Fab-IL12 (LC) (protein, from a related filing, not shown: a dimerising Fc or GST) VH: DVQFQESGPGLVKPSQSLSLTCTVTGYSITSDFAWNWIRQFPGNELEWMGYISYSGDTNYNPSLRSRISITRDTSKNQFFLQLDSVTTEDTATYYCTIRGYYTDSAFVFWGQGTLVTVSA VL: DIQMTQSSSYLSVSLGGRVTITCKASDHINNWLAWYQQKPGNAPRLLISGATSLETGVPSRFTGSGSGLDYTLSITSLQTEDVATYYCQQYWNSPFTFGSGTKLEIK | 11.1
2 | 03A01-Fab-Fc-IL12 (LC) (protein, from a related filing, not shown: a dimerising Fc or GST) VH: DVQFQESGPGLVKPSQSLSLTCTVTGYSITSDFAWNWIRQFPGNELEWMGYISYSGDTNYNPSLRSRISITRDTSKNQFFLQLDSVTTEDTATYYCTIRGYYTDSAFVFWGQGTLVTVSA VL: DIQMTQSSSYLSVSLGGRVTITCKASDHINNWLAWYQQKPGNAPRLLISGATSLETGVPSRFTGSGSGLDYTLSITSLQTEDVATYYCQQYWNSPFTFGSGTKLEIK | 13.4

More lines, now with the values ahead:

Row | EC50 for stimulation of pSTAT4 signaling, CD8+ T cells in pre-activated human PBMCs [pM] | Binder
3 | 1.74 | 02A01-Fab-IL12 (LC) (protein, from a related filing, not shown: a dimerising Fc or GST) VH: EVQLQQSGPELVKPGASLKISCKASGYTFTDFTMHWVKQSHGKSLEWIGLVNPNNGGNIYNQNFKGKATLTVDTSSSTAYMELRSLTSEDSSVYYCGRVPLYTSHGMDYWGQGTSVTVSS VL: DIVLTQSPAFLAVSLGQRATISCRASESVDSYDINSMHWYQQKPGQPPKLLIYRASHLQSGIPARFSGSGSRTDFTLTINFVEADDVATYYCQQSNEDPLTFGAGTKLELK
4 | 2.11 | 02A01-Fab-Fc-IL12 (LC) (protein, from a related filing, not shown: a dimerising Fc or GST) VH: EVQLQQSGPELVKPGASLKISCKASGYTFTDFTMHWVKQSHGKSLEWIGLVNPNNGGNIYNQNFKGKATLTVDTSSSTAYMELRSLTSEDSSVYYCGRVPLYTSHGMDYWGQGTSVTVSS VL: DIVLTQSPAFLAVSLGQRATISCRASESVDSYDINSMHWYQQKPGQPPKLLIYRASHLQSGIPARFSGSGSRTDFTLTINFVEADDVATYYCQQSNEDPLTFGAGTKLELK
